{
  "source": "paper doi:10.1101/2020.07.30.230052",
  "about": "(bioRxiv, 2020)",
  "molecules": {"B1": {"name": "Oligo-histidine tagged NlpI (His-NlpI) (natural protein, Escherichia coli, UniProt P0AFB1 19-294, looked up)", "chain": "CSNTSWRKSEVLAVPLQPTLQQEVILARMEQILASRALTDDERAQLLYERGVLYDSLGLRALARNDFSQALAIRPDMPEVFNYLGIYLTQAGNFDAAYEAFDSVLELDPTYNYAHLNRGIALYYGGRDKLAQDDLLAFYQDDPNDPFRSLWLYLAEQKLDEKQAKEVLKQHFEKSDKEQWGWNIVEFYLGNISEQTLMERLKADATDNTSLAEHLSETNFYLGKYYLSLGDLDSATALFKLAVANNVHNFVEHRYALLELSLLGQDQDDLAESDQQ"}, "B2": {"name": "PBP4 (penicillin binding protein 4, DD-carboxy/endopeptidase) of Escherichia coli, wild type, purified (enzyme)", "chain": "ANVDEYITQLPAGANLALMVQKVGASAPAIDYHSQQMALPASTQKVITALAALIQLGPDFRFTTTLETKGNVENGVLKGDLVARFGADPTLKRQDIRNMVATLKKSGVNQIDGNVLIDTSIFASHDKAPGWPWNDMTQCFSAPPAAAIVDRNCFSVSLYSAPKPGDMAFIRVASYYPVTMFSQVRTLPRGSAEAQYCELDVVPGDLNRFTLTGCLPQRSEPLPLAFAVQDGASYAGAILKDELKQAGITWSGTLLRQTQVNEPGTVVASKQSAPLHDLLKIMLKKSDNMIADTVFRMIGHARFNVPGTWRAGSDAVRQILRQQAGVDIGNTIIADGSGLSRHNLIAPATMMQVLQYIAQHDNELNFISMLPLAGYDGSLQYRAGLHQAGVDGKVSAKTGSLQGVYNLAGFITTASGQRMAFVQYLSGYAVEPADQRNRRIPLVRFESRLYKDIYQNN"}},
  "key": {"[1]": {"target": "PBP4 lacking domain 3 (PBP4ΔD3), purified (Escherichia coli) (UniProt P24228)", "assay": "AUC"}, "[2]": {"target": "N-terminal domain of LpoA (LpoA^N, residues G28-T256) (Escherichia coli) (UniProt P45464)", "sequence (P45464 28-256)": "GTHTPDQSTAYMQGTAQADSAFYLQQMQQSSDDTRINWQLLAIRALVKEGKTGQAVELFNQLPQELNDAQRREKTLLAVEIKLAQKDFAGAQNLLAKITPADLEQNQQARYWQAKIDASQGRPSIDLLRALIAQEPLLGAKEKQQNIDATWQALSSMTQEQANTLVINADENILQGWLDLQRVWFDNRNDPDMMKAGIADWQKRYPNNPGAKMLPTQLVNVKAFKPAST", "assay": "MST"}, "[3]": {"target": "LpoA, full length version, purified (Escherichia coli) (UniProt P45464)", "sequence (P45464 27-678)": "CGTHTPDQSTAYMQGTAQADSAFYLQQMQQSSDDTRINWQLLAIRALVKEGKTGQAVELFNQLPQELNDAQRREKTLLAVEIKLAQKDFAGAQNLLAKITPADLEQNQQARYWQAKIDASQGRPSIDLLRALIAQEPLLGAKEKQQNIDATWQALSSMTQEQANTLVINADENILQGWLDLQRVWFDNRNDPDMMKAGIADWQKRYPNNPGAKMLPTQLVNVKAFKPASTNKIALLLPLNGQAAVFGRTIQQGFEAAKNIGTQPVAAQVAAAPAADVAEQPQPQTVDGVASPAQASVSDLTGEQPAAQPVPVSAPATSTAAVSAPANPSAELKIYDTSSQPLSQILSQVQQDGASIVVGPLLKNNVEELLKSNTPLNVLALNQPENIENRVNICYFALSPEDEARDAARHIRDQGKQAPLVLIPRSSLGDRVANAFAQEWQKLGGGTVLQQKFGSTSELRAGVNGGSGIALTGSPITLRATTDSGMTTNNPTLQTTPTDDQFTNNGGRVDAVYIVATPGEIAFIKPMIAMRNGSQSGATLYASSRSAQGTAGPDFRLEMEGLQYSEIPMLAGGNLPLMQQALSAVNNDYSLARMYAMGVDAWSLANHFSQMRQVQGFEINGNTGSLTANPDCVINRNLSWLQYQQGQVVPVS", "assay": "MST"}, "[4]": {"target": "B2", "assay": "pull-down"}, "AUC": {"target": "the molecule itself", "assay": "AUC"}},
  "data": [
    {"molecule": "PBP4 lacking domain 3 (PBP4ΔD3), purified (from UniProt P24228 21-477) (enzyme)", "values": [
      {"measurement": "stoichiometry N", "setting": "[1]", "value": 2},
      {"measurement": "fold decrease of app. KD against wild-type PBP4", "setting": "[2]", "value": 50, "unit": "fold"},
      {"measurement": "Kd", "setting": "[3]", "value": 153, "unit": "nM"}
    ]},
    {"molecule": "B1", "values": [
      {"measurement": "binding result", "setting": "[4]", "value": "binds"}
    ]},
    {"molecule": "B2", "values": [
      {"measurement": "stoichiometry N", "setting": "AUC", "value": 2}
    ]}
  ]
}
